Experimental data reported in patent US20140105931A1.
Where “and” joins values, the source holds several entries; their conditions need not be identical. Equal entries are not always repeated.

What was measured:
[1] = target: GST-human CD81-LEL (human) (UniProt P60033); assay: ELISA, plate coated with GST-CD81-LEL, 30-fold concentrated HCVpp, detection with 2C1 mAb, GST background subtracted, relative to wt (Cp7) HCVpp
[2] = target: GST-human CD81-LEL (human) (UniProt P60033); assay: ELISA, plate coated with GST-hCD81-LEL, eE2 detected with anti-human-Fc
[3] = target: human CD81 (co-receptor on Huh-7.5 cells) (human) (UniProt P60033); assay: cell-based or functional assay

Substance	blocking of HCVcc (Cp7) infectivity of Huh-7.5 cells [3]	other results
HCVpp carrying E2 C6A (from UniProt P26660 384-750; P26660 192-383)	–	percentage of CD81 binding relative to the wild type [1]: 14.2%
eE2-C6A (Fc-tagged, cell supernatant) (from UniProt P26660 384-664) (Fc fusion)	–	binding capacity relative to wild type eE2 [2]: < 20%
purified eE2 (Fc tag removed) (from UniProt P26660 384-664)	60% and 70%	–
purified eE2-C6A (Fc tag removed) (from UniProt P26660 384-664)	25%	–
purified eE2-C17S (from UniProt P26660 384-664)	60% and 70%	–
